Test results from patent US20240317851A1 (LANOVA MEDICINES, published 2024).
Read-outs that look alike come from different tables or passages of the source.

Tests used:
[1] = target: T1, human Claudin 3 (human, UniProt O15551 1-220); assay: flow cytometry, CHOK1/H_CLDN3 cells
T1 construct: whole, on cells; also called CLDN3
T1 sequence (looked up): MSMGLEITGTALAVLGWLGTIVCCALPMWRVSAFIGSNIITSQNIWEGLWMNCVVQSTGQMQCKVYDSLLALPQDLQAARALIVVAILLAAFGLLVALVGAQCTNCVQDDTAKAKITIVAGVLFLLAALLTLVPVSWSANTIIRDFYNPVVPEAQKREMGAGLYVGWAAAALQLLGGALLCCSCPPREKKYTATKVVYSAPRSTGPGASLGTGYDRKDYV
Description: (§1) In this example, cell-based binding of hu Abs on human CLDN3 expressing cells were assessed using flow cytometry.
(§2) Briefly, the CHOK1/H_CLDN3 cells were incubated with hu-Abs (from 100 nM, 6 folds dilution, 8 points). After incubation at 4° C. for 60 minutes. Cells were pelleted and washed twice with 2% FBS/PBS buffer, and stained with fluorescent conjugated secondary antibody at 4° C. for 30 minutes. After that the cells were washed twice and resuspended in 80 μL of 2% FBS/PBS buffer. Fluorescent signal of binding was detected using Agilent. The EC50 was calculated using the GraphPad software.

[2] = target: T2, human Claudin 9 (human, UniProt O95484 1-217); assay: flow cytometry, HEK293/H_CLDN9 cells, Ab titrated from 100 nM
T2 construct: whole, on cells; also called CLDN9; CLND9
T2 sequence (looked up): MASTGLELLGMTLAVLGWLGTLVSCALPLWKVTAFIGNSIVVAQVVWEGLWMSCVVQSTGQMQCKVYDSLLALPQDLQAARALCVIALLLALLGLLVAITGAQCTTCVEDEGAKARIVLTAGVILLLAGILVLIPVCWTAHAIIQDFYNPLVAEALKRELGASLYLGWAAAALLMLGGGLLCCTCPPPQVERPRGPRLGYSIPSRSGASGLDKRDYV
Description: In this example, cell-based binding of hu Abs on human CLDN9 expressing cells were assessed using flow cytometry.
as §2, with “HEK293/H_CLDN9” for “CHOK1/H_CLDN3”, “software (LaJolla, CA).” for “software.”

[3] = target: T2, human Claudin 9; assay: flow cytometry, HEK293/H_CLDN9 cells
Description: In this example, cell-based binding of z5 toward human CLDN9 engineering expressing cells were assessed using flow cytometry.
as §2, with “2 cell lines” for “the CHOK1/H_CLDN3 cells”, “antibodies” for “hu-Abs”, “points)” for “points). After incubation”

[4] = target: T1, human Claudin 3; assay: flow cytometry, CHOK1/H_CLDN3 cells, Ab titrated from 100 nM
Description: as §1, §2

[5] = target: T3, human Claudin 6 (human, UniProt P56747 1-220); assay: flow cytometry, HEK293/H_CLDN6 cells, Ab titrated from 100 nM
T3 construct: whole, on cells; also called CLDN6
T3 sequence (looked up): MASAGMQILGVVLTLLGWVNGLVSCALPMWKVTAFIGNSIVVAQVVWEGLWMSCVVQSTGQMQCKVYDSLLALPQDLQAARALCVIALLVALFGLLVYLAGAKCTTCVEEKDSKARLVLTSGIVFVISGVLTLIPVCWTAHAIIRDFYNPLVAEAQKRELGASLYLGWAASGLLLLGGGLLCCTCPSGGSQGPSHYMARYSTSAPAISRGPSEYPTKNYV
Description: In this example, cell-based binding of humanized antibodies (hu Abs) on human CLDN6 expressing cells were assessed using flow cytometry.
as §2, with “HEK293/H_CLDN6” for “CHOK1/H_CLDN3”

[6] = target: T2, human Claudin 9; assay: flow cytometry, HEK293/H_CLDN9 cells, Ab titrated from 100 nM; remark: listed apart in the source
Description: (§3) In this example, cell based binding of chimeric Abs on human CLDN6 & CLND9 over-expressing cell line were assessed using flow cytometry.
as §2, with “the” for “the CHOK1/H_CLDN3”, “chimeric Abs” for “hu-Abs”, “6-fold” for “6 folds”, “points) for 60 minutes” for “points). After incubation”, “C.” for “C. for 60 minutes.”, “software (LaJolla, CA).” for “software.”

[7] = target: T3, human Claudin 6; assay: flow cytometry, HEK293/H_CLDN6 cells, Ab titrated from 100 nM; remark: listed apart in the source
Description: as §3
as §2, with “the” for “the CHOK1/H_CLDN3”, “chimeric Abs” for “hu-Abs”, “6-fold” for “6 folds”, “points) for 60 minutes” for “points). After incubation”, “C.” for “C. for 60 minutes.”, “software (LaJolla, CA).” for “software.”

B1: 97-C10E1-2-P1.z1 (antibody, V domains shown)
VH: QVQLVQSGAEVKKPGASVKVSCKASGYAFTGYTMNWVRQAPGQGLEWIGLSNPYNAGTIYNQKFKGRVTMTVDKSTSTVYMELSSLRSEDTAVYYCARNYYYGSSYAYYYAMDYWGQGTTVTVSS
VL: EAVMTQSPATLSVSPGERATLSCRSSTGAVTTSNYANWVQQKPGQAPRLLIGGTNNRAPGIPARFSGSGSGDEATLTISSLQSEDFAVYFCALWYSNHWVFGGGTKVEIK
- binding result [1]: no binding (tested: 100 nM (highest concentration tested))
- Top MFI [2]: 479
- binding result [3]: no binding (tested: 100 nM (highest concentration tested))
- Top MFI [4]: 136
- Top MFI [5]: 45100

B2: 97-C10E1-2-P1.z11 (antibody, V domains shown)
VH: QVQLQQSGAEVKKPGASMKISCKASGYAFTGYTMNWVRQAPGQNLEWIGLSNPYNAGTIYNQKFKGRATLTVDKSTSTAYMELLSLRSEDTAVYYCARNYYYGSSYAYYYAMDYWGQGTTVTVSS
VL: EAVMTQSPATLSVSPGERATLSCRSSTGAVTTSNYANWVQQKPGQAPRLLIGGTNNRAPGIPARFSGSGSGDEATLTISSLQSEDFAVYFCALWYSNHWVFGGGTKVEIK
- binding result [1]: no binding (tested: 100 nM (highest concentration tested))
- Top MFI [2]: 287
- binding result [3]: no binding (tested: 100 nM (highest concentration tested))
- Top MFI [4]: 118
- Top MFI [5]: 31000

B3: 97-C10E1-2-P1.z12 (antibody, V domains shown)
VH: QVQLQQSGAEVKKPGASMKISCKASGYAFTGYTMNWVRQAPGQNLEWIGLSNPYNAGTIYNQKFKGRATLTVDKSTSTAYMELLSLRSEDTAVYYCARNYYYGSSYAYYYAMDYWGQGTTVTVSS
VL: EAVVTQSPATLSVSPGERATLSCRSSTGAVTTSNYANWVQEKPGQAFRGLIGGTNNRAPGIPARFSGSLSGDEATLTISSLQSEDFAVYFCALWYSNHWVFGGGTKVEIK
- binding result [1]: no binding (tested: 100 nM (highest concentration tested))
- Top MFI [2]: 149
- binding result [3]: no binding (tested: 100 nM (highest concentration tested))
- Top MFI [4]: 130
- Top MFI [5]: 107000

B4: 59-A2E6 (antibody, V domains shown)
VH: EVQLQQSGPELVKPGASVKISCKTSGYTFTEYTMHWVKQSHGKSLEWIGGINPKNGGTSYNQKFKGKATLTVDKSSSTVYMEFRSLTTEDSAVYYCARGMLVAFYFDCWGQGTTLTVSS
VL: DIQMTQSPASQSASLGESVTITCLASQTIGTWLAWYQQKPGKSPQLLIYAATSLADGVPSRFSGSGSGTKFSFKISSLQAEDFVSYYCQQLYSTPYTFGGGTKLEIK
notes: Tested as chimeric antibody
- Top MFI [6]: 102000
- Top MFI [7]: 264000

B5: 81-H10F8 (antibody, V domains shown)
VH: EVQLQQSGPELVKPGASVKISCKTSGYTFTEYTMHWVKQSHGKSLEWIGGINPNNGGTSYNQKFKGKATLTVDKSSRTAYMELRSLTSEDSAVYYCARGMVVAFYFDCWGQGTTLTVSS
VL: DIQMTQSPASQSASLGESVTITCLASQTIGTWLAWYQQKPGKSPQLLIYAATGLADGVPSRFSGGGSGTKFSFKISSLQVEDFVSYYCQQLYSTPYTFGGGTKLEIK
notes: Tested as chimeric antibody
- Top MFI [6]: 105000
- Top MFI [7]: 257000

B6: 97-C10E1-2-P1.z14 (antibody, V domains shown)
VH: QVQLQQSGAEVKKPGASMKISCKASGYAFTGYTMNWVRQAPGQNLEWIGLSNPYNAGTIYNQKFKGRATLTVDKSTSTAYMELLSLRSEDTAVYYCARNYYYGSSYAYYYAMDYWGQGTTVTVSS
VL: DAQMTQSPSSLSASVGDRVTITCRSSTGAVTTSNYANWVQQKPGKAFKGLIGGTNNRAPGVPARFSGSLSGTDAALTISSLQPEDFATYFCALWYSNHWVFGGGTKVEIK
- binding result [1]: no binding (tested: 100 nM (highest concentration tested))
- Top MFI [2]: 661
- binding result [3]: no binding (tested: 100 nM (highest concentration tested))
- Top MFI [4]: 158
- Top MFI [5]: 115000

B7: 36-E6A6 (antibody, V domains shown)
VH: QVQLQQSGGEVVRPGTSVKVSCKASGYAFTNNLIEWVKQRPGQGLEWIGVIHPGSGGSNYNEKFKNKATLTTDKSSSTAYIQLSSLTSDDSAVYFCARRGRDYAMDYWGQGTSVTVSS
VL: EIVLTQSPAIMSASLGEKVTMSCRASSSVNSIYWYQQKSDASPKLWIYYTSNLAPGVPARFSGSGSGNSYSLTIRSMEGEDAATYYCQQFTSSPLTFGAGTKLELK
notes: Tested as chimeric antibody
- Top MFI [7]: 62100
